Measured values taken from doi:10.1101/2020.11.23.394270.

Target: T1, human urotensin II receptor (hUT), stably expressed in HEK 293 cells (human) (UniProt Q9UKP6)
T1 sequence: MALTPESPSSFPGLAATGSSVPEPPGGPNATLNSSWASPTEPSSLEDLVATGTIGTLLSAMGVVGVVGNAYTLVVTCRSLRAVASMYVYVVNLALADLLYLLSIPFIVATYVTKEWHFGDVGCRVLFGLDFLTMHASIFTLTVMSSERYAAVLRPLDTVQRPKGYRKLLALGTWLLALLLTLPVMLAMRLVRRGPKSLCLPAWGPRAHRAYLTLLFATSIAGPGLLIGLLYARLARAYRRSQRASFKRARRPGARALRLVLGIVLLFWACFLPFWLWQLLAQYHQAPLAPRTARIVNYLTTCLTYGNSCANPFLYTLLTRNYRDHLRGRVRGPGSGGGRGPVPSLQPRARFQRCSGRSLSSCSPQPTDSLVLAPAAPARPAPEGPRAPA

Which Emax of β-arrestin 2 conformational change (BRET biosensor), HEK 293-hUT cells does the source give for human urotensin II (ligand) here?
Its Emax of β-arrestin 2 conformational change (BRET biosensor), HEK 293-hUT cells is 100%.
